# Test results from patent US9744220B2, “Compositions and methods for treating inflammatory diseases” (priority 2013, dated 2017).
# B1: sPDNF: N-terminal short-form of T cruzi PDNF that contains Trk-binding sites, recombinant; amino acids 1-588 of SEQ ID NO: 2; JR-100 is the commercial name (protein, listed as Trypanosoma cruzi)
# chain: MGKTVVVASRMFWLMFFVPLLLAICPSEPAYALAPGSSRVELFKRKNSTVPFEDKAGKVTERVVHSFRLPALVNVDGVMVAIADARYDTSNDNSLIDTVAKYSVDDGETWETQIAIKNSRVSSVSRVVDPTVIVKGNKLYVLVGSYYSSRSYWSSHGDARDWDILLAVGEVTKSTAGGKITASIKWGSPVSLKKFFPAEMEGMHTNQFLGGAGVAIVASNGNLVYPVQVTNKKKQVFSKIFYSEDDGKTWKFGKGRSDFGCSEPVALEWEGKLIINTRVDWKRRLVYESSDMEKPWVEAVGTVSRVWGPSPKSNQPGSQSSFTAVTIEGMRVMLFTHPLNFKGRWLRDRLNLWLTDNQRIYNVGQVSIGDENSAYSSVLYKDDKLYCLHEINTDEVYSLVFARLVGELRIIKSVLRSWKNWDSHLSSICTPADPAASSSESGCGPAVTTVGLVGFLSGNASQNVWEDAYRCVNASTANAERVRNGLKFAGVGGGALWPVSQQGQNQRYRFANHAFTLVASVTIHEAPRAASPLLGASLDSSGGKKLLGLSYDEKHQWQPIYGSTPVTPTGSWETGKRYHLVLTMANKI
# How the values were obtained:
# [1] = test system: cardiac and hepatic stem cell markers; assay: Intravenous sPDNF into naïve mice, stem cell markers by real time PCR; format: in vivo; conditions: independently of TLR signaling
# Experimental: FIG. 2A is a graph showing stem cell marker expression in mice administered sPDNF. One set of three wild type C57BL/6 mice received intravenous (IV) PBS without (PBS) or with sPDNF (2 mg/kg) at 0, 3 and 24 hours (sPDNF 1d), and a second set IV sPDNF (2 mg/kg) for 6 days (sPDNF 6d). Mice were sacrificed 3 hr post injection and the indicated stem cells markers were quantified in the ventricles by real time PCR, and normalized to HPRT; *, p<0.05, **, p<0.001, ***, p<0.0001; SCF, stem cell factor, ns, not significant. FIG. 2B is a graph showing stem cell marker expression in MyD88^−/− mice administered sPDNF. TLR-deficient MyD88^−/− mice (C57BL/6 background) (2/group) were injected IV with a single dose of sPDNF (2 mg/kg), sacrificed at 3 hours post-injection, and the indicated cardiac stem cell markers assessed by qPCR. […] Cardiac Sca-1 and SCF transcripts were quantified by qPCR; **, P<0.001; ***, P<0.0005. FIG. 2D is a graph showing quantitation of Sca-1 expression in various organs of mice administered sPDNF. C57BL/6 mice (3 per group), average of two experiments) were injected IV with sPDNF at 4 mg/kg body weight or PBS, sacrificed 3 hours later, and Sca-1 mRNA quantified by qPCR in the liver, heart, colon and bone marrow (*, P<0.05, **, P<0.001; ns, not significant; dotted line represents Sca-1 mRNA of vehicle-treated mice set at 1.0, data are representative of 2 experiments. […]
# [2] = test system: heart of mice with chronic Chagas cardiomyopathy (CCC); assay: Chronic Chagas cardiomyopathy (CCC) mice, heart histology (H&E, Masson-Trichrome); format: in vivo; conditions: for cardiac fibrosis: IV, Masson-Trichrome
# Experimental: FIG. 3A depicts in vivo experimental design, groups, treatment and timeline for the infective and anti-inflammatory effects of sPDNF. C57BL/6 mice (7 per group) were injected intraperitoneally with T cruzi Colombian strain (8×10^2 per mouse) and, four months later, intravenously with PBS (vehicle) or sPDNF (1 mg/kg body weight) at 0, 3, and 24 hours, weekly for 3 weeks. Mice were sacrificed 50 days after the first set of IV sPDNF treatment. FIG. 3B are images of heart (ventricle) paraffin-embedded, sectioned, and stained with H&E. Arrows indicate foci of inflammatory infiltrates, which were abundant in sham-treated (IV PBS) CCC mice and rare in IV sPDNF-treated CCC mice. Similar histology was found in other tissue sections and in a distinct set of sPDNF-treated and PBS-sham mice.
# Same mice and experimental protocol as described in FIG. 3A were used except that paraffin-embedded heart sections were stained with Masson-Trichrome to visualize collagen in fibrotic areas (blue) and viable muscle fibers (red). FIGS. 4A and 4B display sections of atria of mice with CCC administered IV PBS or IV sPDNF, respectively. FIG. 4C is a graph showing the amount of cardiac fibrosis, as determined using ImageJ software (NIH) in four distinct sections of atria and ventricles. Relative cardiac fibrosis is defined as the ratio of blue pixels to total pixels (blue+red) normalized to corresponding areas of the heart of uninfected mice set at 1.0 (dotted line); **, P<0.01, ns, not significant relative uninfected hearts.
# Limulus amebocyte assay = conditions: sPDNF preparations
# Experimental: To ensure that the response observed in wild type mice was not due to TLR activation, MCP-1 and FKN response to IV sPDNF was assessed in TLR-deficient MyD88^−/− mice (23).
# PDNF was cloned from the T cruzi Silvio X-10/4 strain (GenBank accession number AJ002174). PDNF and a N-terminal short-form of PDNF (sPDNF) that contains Trk-binding sites, were expressed in BL21 (DE3) bacteria, and purified by Ni-affinity chromatography, as described previously (4, 12, 18, 60). Buffers were prepared in sterile endotoxin-free water, and sPDNF preparations screened with the Limulus amebocyte assay have undetectable levels of endotoxin. sPDNF migrates as a 68 kDa protein on a SDS-PAGE gel. PDNF protein was buffer exchanged into PBS (0.01 M phosphate buffered saline, pH 7.2), filter-sterilized (0.22 μm), and kept at 4° C. PDNF was quantified by scanning densitometry (Bio-Rad, GS-800) of SDS-PAGE gels stained with Coomassie brilliant blue.
molecule,measurement,setting,value
B1,expression of cardiac and hepatic stem cell markers,[1],increased expression
same,inflammatory infiltrates in the heart,"[2]; IV 1 mg/kg at 0, 3, 24 hours weekly for 3 weeks, 1 mg/kg",dramatic reduction and rare
same,cardiac fibrosis,[2],reduced
same,cardiac fibrosis,[2]; listed as PDNF fragment,nearly eliminated
same,levels of endotoxin,Limulus amebocyte assay,did not have detectable levels
